Values of other authors in paper PMC12411175.

Target: insulin receptor (Homo sapiens) (UniProt P06213)
Sequence of UniProt P06213 (P06213 763-1382): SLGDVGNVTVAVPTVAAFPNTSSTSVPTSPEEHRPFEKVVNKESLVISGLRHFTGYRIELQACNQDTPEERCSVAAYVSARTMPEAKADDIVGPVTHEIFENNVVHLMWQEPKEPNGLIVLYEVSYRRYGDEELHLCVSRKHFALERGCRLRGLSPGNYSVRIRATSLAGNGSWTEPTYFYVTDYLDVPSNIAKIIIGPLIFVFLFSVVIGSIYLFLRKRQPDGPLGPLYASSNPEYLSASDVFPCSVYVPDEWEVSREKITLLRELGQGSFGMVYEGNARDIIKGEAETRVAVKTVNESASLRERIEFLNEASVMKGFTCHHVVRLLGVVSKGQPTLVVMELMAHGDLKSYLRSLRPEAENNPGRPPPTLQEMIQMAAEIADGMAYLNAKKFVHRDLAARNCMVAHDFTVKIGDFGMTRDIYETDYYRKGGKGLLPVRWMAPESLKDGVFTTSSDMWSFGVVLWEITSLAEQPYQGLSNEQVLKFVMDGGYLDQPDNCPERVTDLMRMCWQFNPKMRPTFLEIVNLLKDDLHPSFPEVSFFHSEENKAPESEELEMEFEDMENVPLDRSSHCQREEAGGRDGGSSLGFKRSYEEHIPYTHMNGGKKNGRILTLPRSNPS

Sequence of insulin (P01308 90-110): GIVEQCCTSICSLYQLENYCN

Q: Which Kd does the source give for insulin (from UniProt P01308) here?
A: The Kd was 0.02 nM.
